# Patent US8993717B2, “Gadd45beta targeting agents” (Imperial Innovations Limited, priority 2009, dated 2015)
# Where two headings read alike, the source gives them in different places. Square brackets hold non-standard residues; d marks the D form. Primed or numbered codes have the meaning given here. Peptide text beside a SMILES is read from it. * marks the point of attachment. Benzoyl(3-OH,4-OMe) = COc1ccc(C(=O)*)cc1O; Fmoc = O=C(OCC1c2ccccc2-c2ccccc21)*; Myristoyl = CCCCCCCCCCCCCC(=O)*; NHPhenethyl = c1ccc(CCN*)cc1; ClZ = O=C(OCc1ccccc1Cl)*; OMe′ = Asp methyl ester; Cbz = O=C(OCc1ccccc1)*; Bz = O=C(c1ccccc1)*; βAla = NCCC(=O)O
# Tests used:
# [1] = tested on: KMS11 multiple myeloma cells; assay: [3H]thymidine incorporation assay in KMS11; assay type: cell-based, human
# Protocol: Cultures of multiple myeloma cells and treatments with Z-DTPs were carried out as described in Example 8 (see below). The effects of Z-DTPs on the survival/proliferation of multiple myeloma cells were evaluated by the use of [^3H]thymidine) incorporation assays, performed as also described in Example 8. The amount of cell proliferation measured with each of the Z-DTPs' concentrations used and with the untreated cultures (i.e. cultures incubated with medium alone), was expressed as counts per minute (c.p.m.)—which directly correlate with the extent of cell proliferation. All experiments were performed in triplicate.
# In these latter assays, the effects of Z-DTPs, Ac-DTPs and Z-LTPs on the survival/proliferation of tumour cell lines was investigated by measuring DNA synthesis using standard tritiated thymidine ([^3H]thymidine; [^3H]-TdR) uptake assays. In the analyses shown, cells were incubated for 24, 72, 120 or 144 hrs at 37° C. in the presence or absence of control or bioactive tetrapeptides, as indicated, then subjected to an additional incubation for 18 hrs with [^3H]-TdR (0.037 MBq/well, equivalent to […]). Cells were subsequently harvested onto glass fibre filter mats using a 96-well plate automated cell harvester, after which scintillation fluid was added, and [^3H]thymidine incorporation measured by liquid scintillation spectroscopy on a beta counter. The results are expressed as the percentages of the counts per minute (c.p.m.) (directly correlating with the extent of cell proliferation) measured with tetrapeptide-treated cultures relative to the c.p.m. measured with the corresponding cultures incubated with medium alone (untreated cells). All experiments were performed in triplicate.
# Gadd45β/MKK7 interaction = target: T1, Gadd45β/MKK7 interaction (Homo sapiens, UniProt O14733); assay: ELISA competition assay of biotin-hGadd45β binding to coated GST-MKK7; conditions: for inhibition of Gadd45β/MKK7 complex formation in ELISA competition assays: result in words
# T1 construct: The GST-fused full-length kinase was coated for 16 h at 4° C., at a concentration of 42 nM; made in house
# T1 sequence (O14733 1-419): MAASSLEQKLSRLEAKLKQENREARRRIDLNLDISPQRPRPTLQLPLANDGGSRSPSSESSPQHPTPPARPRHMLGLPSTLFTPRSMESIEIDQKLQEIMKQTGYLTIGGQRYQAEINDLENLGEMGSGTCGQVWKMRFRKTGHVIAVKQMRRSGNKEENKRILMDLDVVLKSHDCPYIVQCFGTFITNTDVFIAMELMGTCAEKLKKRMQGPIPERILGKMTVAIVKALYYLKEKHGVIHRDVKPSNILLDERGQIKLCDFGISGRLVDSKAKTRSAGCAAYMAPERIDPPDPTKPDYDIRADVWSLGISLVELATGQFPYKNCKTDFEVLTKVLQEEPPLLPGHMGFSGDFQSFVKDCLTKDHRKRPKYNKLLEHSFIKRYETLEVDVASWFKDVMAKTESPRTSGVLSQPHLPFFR
# Protocol: To evaluate the inhibitory properties of peptides, ELISA-based assays were performed. In these assays, a fusion protein of glutathione S-transferase (GST) and mitogen-activated protein kinase kinase 7 (MKK7) was coated onto wells of a 96-well plate, while biotinylated-hGadd45β was used in solution. hGadd45β was biotinylated using an EZ Link NHS-LC-biotin kit (Pierce, Rockford, Ill.), according to Tornatore et al. (Tornatore L., et al. (2008). J Mol Biol; 378:97-111).
# Firstly, the association between Gadd45β and MKK7 was investigated by ELISA assays as also reported in Tornatore et al. (Tornatore L., et al. (2008). J Mol Biol; 378:97-111). The GST-fused full-length kinase was coated for 16 h at 4° C., at a concentration of 42 nM in buffer A (25 mM Tris pH 7.5, 150 mM NaCl, 1 mM DTT and 1 mM EDTA) into wells of a 96-well microliter plate. Some wells were filled with buffer alone and were used as blanks. After incubation for 16 h at 4° C., the solutions were removed and the wells were filled with 350 μL of a 1% (w/v) solution of NFDM (Non Fat Dry Milk) in PBS (phosphate buffered saline). The plate was incubated for 1 h at 37° C. in the dark. After washing with buffer T-PBS (PBS with 0.004% (v/v) Tween detergent), the wells were filled with 100 μL of biotinylated-hGadd45β at concentrations ranging from 8.4 nM to 168 nM. Each data point was performed in triplicate. Following incubation for 1 hr in the dark at 37° C. the solutions were removed and the wells were again washed with T-PBS. Then 100 μL of a 1:10,000 dilution of horseradish peroxidase-conjugated streptavidin dissolved in buffer was added to each well and the plate incubated for 1 hr at 37° C. in the dark. After removal of the enzyme solution and washing, 100 μL of the chromogenic substrate o-phenylendiamine (0.4 mg/mL in 50 mM sodium phosphate-citrate buffer, containing 0.4 mg/mL of urea in hydrogen peroxide) was added and the colour was allowed to develop in the dark for 5 min. The reaction was stopped by adding 50 μL of 2.5 M H2SO4. The absorbance at 490 nm was measured in all wells and the values were averaged after subtracting the corresponding blanks. Bound protein was then detected as described above. The molar concentration of biotinylated-hGadd45β at which the half-maximal ELISA signal is detected corresponds to the dissociation constant (KD) (Friguet B, Chaffotte A F, Djavadi-Ohaniance L, Goldberg M E. J Immunol Methods. 1985 Mar. 18; 77 (2):305-19). Binding competition assays were performed by coating GST-MKK7 at 42 nM as described, a concentration of biotinylated-hGadd45β of 21 nM (pre-saturation conditions 1:0.5 mol/mol ratio) and, in a first test, using competitors at 21 nM. The binding of biotinylated hGadd45β to GST-MKK7 was analyzed in the presence of increasing amounts of competitor peptide (concentrations ranging from 0.01 nM to 100 nM), and the values obtained with the competitor were expressed as the percentage of the binding detected in the absence of competitor. […] According to the convention adopted in the table “L-Xaa” and “D-Xaa” refer to the L and D forms of amino acid Xaa.
# A simplified combinatorial peptide library (Marasco et al. 2008, Curr. Protein Pept. Sci. 9:447-67) was screened for antagonists of the Gadd45β/MKK7 interaction. This library contained a total of 12^4=20,736 different tetrapeptides formed by combinations of the following amino acid residues Gln (Q), Ser (S), Arg (R), Ala (A), Tyr (Y), Pro (P), Met (M), Cys (C), Phe (F), Leu (L), His (H), Asp (D), and was iteratively deconvoluted in four steps by ELISA competition assays using at each step coated MKK7 (42 nM), soluble-biotin-hGadd45β (21 nM) and each of the 12 sub-libraries (42 nM).
# [2] = Table I, initial Elisa screening, coated MKK7 42 nM, biotin-hGadd45β 21 nM, competitor 21 nM, sub-libraries 42 nM
# [3] = Table II, modified pure peptides
# [4] = Table VI, compounds 0.01-100 nM, read-out: IC50 Elisa
compound,measurement,setting,value
CSCC[C@@H](NC(=O)[C@@H](Cc1ccc(O)cc1)NC(=O)OCc1ccccc1)C(=O)N[C@H](CCCNC(=N)N)C(=O)N[C@H](Cc1ccccc1)C(N)=O [Z-Tyr-Met-Arg-Phe-NH2] (Cbz-[dY][dM][dR][dF]-NH2),IC50,"[1]; Day 1, read-out: IC50 [H^3] thymidine incorporation assay in KMS11",> 10 µM
same,IC50,"[1]; Day 3, read-out: IC50 [H^3] thymidine incorporation assay in KMS11",> 10 µM
same,IC50,"[1]; Day 6, read-out: IC50 [H^3] thymidine incorporation assay in KMS11",> 10 µM
"N=C(N)NCCC[C@@H](NC(=O)[C@@H](CCC(=O)O)NC(=O)c1ccccc1)C(=O)NCCc1ccccc1 [Compound 12, X1-Glu-Arg-Y3] (Bz-[dE]-[dR]-NHPhenethyl)",IC50,[1],> 10 µM
Fmoc(βAla)2-YDHY-NH2 ({Fmoc-βAla-βAla}-YDHY-NH2; SMILES NC(=O)[C@H](Cc1ccc(O)cc1)NC(=O)[C@H](Cc1c[nH]cn1)NC(=O)[C@H](CC(=O)O)NC(=O)[C@H](Cc1ccc(O)cc1)NC(=O)CCNC(=O)CCNC(=O)OCC1c2ccccc2-c2ccccc21),% Inhibition of Gadd45β-MKK7 binding,Gadd45β/MKK7 interaction; [2],63%
Ac-WDRF-NH2,% Inhibition of Gadd45β-MKK7 binding,Gadd45β/MKK7 interaction; [3],46%
Ac-YPRF-NH2,% Inhibition of Gadd45β-MKK7 binding,"Gadd45β/MKK7 interaction; Table III, modified peptides",13%
"N=C(N)NCCC[C@@H](NC(=O)[C@@H](Cc1ccc(O)cc1)NC(=O)OCc1ccccc1)C(=O)N[C@H](Cc1ccccc1)C(N)=O [Compound 19, Z-Tyr-Arg-Phe-NH2] (Cbz-[dY]-[dR]-[dF]-NH2)",IC50,Gadd45β/MKK7 interaction; read-out: IC50s in vitro,0.1 nM
"3-OH—4MeO-Benzoid acid-YDHQ-NH2 ({Benzoyl(3-OH,4-OMe)}-YDHQ-NH2)",% Inhibition of Gadd45β-MKK7 binding,"Gadd45β/MKK7 interaction; Table III, modified peptides",7%
Benzoic acid-YERF-NH2,% Inhibition of Gadd45β-MKK7 binding,"Gadd45β/MKK7 interaction; Table III, modified peptides",24%
Myr-YERF-NH2 (Myristoyl-YERF-NH2),% Inhibition of Gadd45β-MKK7 binding,"Gadd45β/MKK7 interaction; Table III, modified peptides",37%
Ac-YDHF-NH2,% Inhibition of Gadd45β-MKK7 binding,Gadd45β/MKK7 interaction; [3],94%
same,inhibition of Gadd45β/MKK7 complex formation in ELISA competition assays,Gadd45β/MKK7 interaction,IC50s similar to those of DTPs
Ac-PERF-NH2,% Inhibition of Gadd45β-MKK7 binding,"Gadd45β/MKK7 interaction; Table III, modified peptides",24%
Ac-YEHW-NH2,% Inhibition of Gadd45β-MKK7 binding,Gadd45β/MKK7 interaction; [3],64%
"CC(=O)NC(Cc1ccccc1)C(=O)NC(CCCNC(=N)N)C(=O)NC(Cc1ccc(O)cc1)C(N)=O (stereo not drawn) [Compound O1, Ac-FRY-NH2] (Ac-Phe-Arg-Tyr-NH2; configuration not given here)",IC50,Gadd45β/MKK7 interaction; [4],> 100 nM
Fmoc-YDHF-NH2,% Inhibition of Gadd45β-MKK7 binding,"Gadd45β/MKK7 interaction; Table III, modified peptides",58%
Ac-WDKW-NH2,% Inhibition of Gadd45β-MKK7 binding,Gadd45β/MKK7 interaction; [3],69%
Ac-YEKW-NH2,% Inhibition of Gadd45β-MKK7 binding,Gadd45β/MKK7 interaction; [3],27%
Ac-AERF-NH2,% Inhibition of Gadd45β-MKK7 binding,"Gadd45β/MKK7 interaction; Table III, modified peptides",7%
2CI-Z-YDHQ-NH2 (ClZ-YDHQ-NH2),% Inhibition of Gadd45β-MKK7 binding,"Gadd45β/MKK7 interaction; Table III, modified peptides",40%
Z-YD(OMe)HQ-NH2 (Cbz-YD(OMe′)HQ-NH2),% Inhibition of Gadd45β-MKK7 binding,"Gadd45β/MKK7 interaction; Table III, modified peptides",3%
Ac-YERF-NH2,% Inhibition of Gadd45β-MKK7 binding,Gadd45β/MKK7 interaction; [3],93%
same,inhibition of Gadd45β/MKK7 complex formation in ELISA competition assays,Gadd45β/MKK7 interaction,IC50s similar to those of DTPs
Ac-YDKW-NH2,% Inhibition of Gadd45β-MKK7 binding,Gadd45β/MKK7 interaction; [3],23%
Fmoc(βAla)2-YDHH-NH2 ({Fmoc-βAla-βAla}-YDHH-NH2; SMILES NC(=O)[C@H](Cc1c[nH]cn1)NC(=O)[C@H](Cc1c[nH]cn1)NC(=O)[C@H](CC(=O)O)NC(=O)[C@H](Cc1ccc(O)cc1)NC(=O)CCNC(=O)CCNC(=O)OCC1c2ccccc2-c2ccccc21),% Inhibition of Gadd45β-MKK7 binding,Gadd45β/MKK7 interaction; [2],40%
Benzoic acid-YDHQ-NH2,% Inhibition of Gadd45β-MKK7 binding,"Gadd45β/MKK7 interaction; Table III, modified peptides",1%
Fmoc(βAla)2-YDHP-NH2 ({Fmoc-βAla-βAla}-YDHP-NH2; SMILES NC(=O)[C@@H]1CCCN1C(=O)[C@H](Cc1c[nH]cn1)NC(=O)[C@H](CC(=O)O)NC(=O)[C@H](Cc1ccc(O)cc1)NC(=O)CCNC(=O)CCNC(=O)OCC1c2ccccc2-c2ccccc21),% Inhibition of Gadd45β-MKK7 binding,Gadd45β/MKK7 interaction; [2],16%
Z-YDHQ-NH2 (Cbz-YDHQ-NH2),% Inhibition of Gadd45β-MKK7 binding,"Gadd45β/MKK7 interaction; Table III, modified peptides",13%
Fmoc(βAla)2-YDHS-NH2 ({Fmoc-βAla-βAla}-YDHS-NH2; SMILES NC(=O)[C@H](CO)NC(=O)[C@H](Cc1c[nH]cn1)NC(=O)[C@H](CC(=O)O)NC(=O)[C@H](Cc1ccc(O)cc1)NC(=O)CCNC(=O)CCNC(=O)OCC1c2ccccc2-c2ccccc21),% Inhibition of Gadd45β-MKK7 binding,Gadd45β/MKK7 interaction; [2],0%
Ac-YDHW-NH2,% Inhibition of Gadd45β-MKK7 binding,Gadd45β/MKK7 interaction; [3],58%
2CI-Z-YDHF-NH2 (ClZ-YDHF-NH2),% Inhibition of Gadd45β-MKK7 binding,"Gadd45β/MKK7 interaction; Table III, modified peptides",38%
Ac-YERFLys(Z)-NH2 (Ac-YERFK(Cbz)-NH2; SMILES CC(=O)N[C@@H](Cc1ccc(O)cc1)C(=O)N[C@@H](CCC(=O)O)C(=O)N[C@@H](CCCNC(=N)N)C(=O)N[C@@H](Cc1ccccc1)C(=O)N[C@@H](CCCCNC(=O)OCc1ccccc1)C(N)=O),% Inhibition of Gadd45β-MKK7 binding,"Gadd45β/MKK7 interaction; Table III, modified peptides",6%
Ac-YERA-NH2,% Inhibition of Gadd45β-MKK7 binding,"Gadd45β/MKK7 interaction; Table III, modified peptides",28%
Ac-YEAF-NH2,% Inhibition of Gadd45β-MKK7 binding,"Gadd45β/MKK7 interaction; Table III, modified peptides",13%
"CC(=O)NC(Cc1ccc(O)cc1)C(=O)NC(Cc1ccccc1)C(N)=O (stereo not drawn) [Compound A1, Ac-YF-NH2] (Ac-Tyr-Phe-NH2; configuration not given here)",IC50,Gadd45β/MKK7 interaction; [4],> 100 nM
"3-OH—4MeO-Benzoid acid-YDHF-NH2 ({Benzoyl(3-OH,4-OMe)}-YDHF-NH2)",% Inhibition of Gadd45β-MKK7 binding,"Gadd45β/MKK7 interaction; Table III, modified peptides",81%
